Data reported in PMC11957415, “Size-exclusion chromatography–small-angle neutron scattering system optimized for an instrument with medium neutron flux” (Journal of Applied Crystallography, 2025).
Each block holds one binder with its values, some of them ahead of it.

Legend:
[1] = biological target: T1, hydrogenated KaiC, phosphorylation mimic S431D (Synechococcus elongatus PCC 7942, UniProt Q79PF4 1-519, S431D); assay: SEC; KaiB and KaiC mixed at a molar ratio of 12:6 and incubated at 303 K for 48 h; Superdex 200 Increase 10/300 GL, 0.5 mL/min; 98% D2O buffer with 50 mM sodium phosphate pH 7.8, 150 mM NaCl, 5 mM MgCl2, 0.5 mM EDTA, 1 mM DTT, 3 mM ATP, 50 mM glutamic acid, 50 mM arginine; settings: both partners purified
T1 construct: Clock protein KaiC from Synechococcus elongatus PCC 7942, phosphorylation site S431 substituted with aspartate; KaiB and KaiC were mixed at a molar ratio of 12:6, and M from I(0) of hC alone is 334 ± 11 kDa; The buffer contained 3 mM ATP and 5 mM MgCl2; also called hC; h-KaiC; source: expressed and purified as previously described
T1 sequence (looked up): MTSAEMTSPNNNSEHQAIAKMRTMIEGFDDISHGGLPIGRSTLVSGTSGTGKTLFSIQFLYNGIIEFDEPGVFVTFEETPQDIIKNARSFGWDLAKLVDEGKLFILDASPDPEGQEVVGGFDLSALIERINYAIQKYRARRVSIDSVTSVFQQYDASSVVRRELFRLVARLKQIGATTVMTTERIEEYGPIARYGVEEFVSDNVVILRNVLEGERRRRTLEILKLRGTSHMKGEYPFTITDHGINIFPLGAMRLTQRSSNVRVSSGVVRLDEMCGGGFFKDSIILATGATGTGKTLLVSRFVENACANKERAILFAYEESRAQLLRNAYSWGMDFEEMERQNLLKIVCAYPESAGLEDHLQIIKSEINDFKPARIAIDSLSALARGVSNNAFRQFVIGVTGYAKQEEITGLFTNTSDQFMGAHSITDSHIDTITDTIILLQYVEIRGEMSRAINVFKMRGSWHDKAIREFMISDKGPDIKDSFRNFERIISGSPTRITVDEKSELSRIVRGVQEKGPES

[2] = biological target: T1, hydrogenated KaiC, phosphorylation …; assay: SEC-SANS; BC complex fraction from SEC stored in the SANS cell (stopping mode), 298 K, 98% D2O clock protein buffer; compared with hC alone; settings: both partners purified

binding result [1]: binds
B1: 71% deuterated KaiB (natural protein, Synechococcus elongatus PCC 7942, UniProt Q79PF5 1-102, looked up)
chain: MSPRKTYILKLYVAGNTPNSVRALKTLKNILEVEFQGVYALKVIDVLKNPQLAEEDKILATPTLAKVLPLPVRRIIGDLSDREKVLIGLDLLYGELQDSDDF
modifications: partially deuterated; degree of deuteration 71% (MALDI-TOF mass spectrometry)
notes: Clock protein KaiB from Synechococcus elongatus PCC 7942; also called 71dB; 71d-KaiB; source: bacterial cells grown in M9 minimal H2O/D2O mixture media with hydrogenated and deuterated glucose, purified

binding result [2]: binds
B2: hydrogenated KaiB (natural protein, Synechococcus elongatus PCC 7942, UniProt Q79PF5 1-102, looked up)
chain: B1 chain
notes: Clock protein KaiB from Synechococcus elongatus PCC 7942; also called hB; h-KaiB; source: expressed and purified as previously described
